# From IntAct's records for PubMed 19805276
# B1: Stage IV sporulation protein FB (Bacillus subtilis), P26937 (parent)
# chain: MNKWLDLILKIHVHPFLWIIAALGLLTGHMKALLCLLLIVLIHELGHAALAVFFSWRIKRVFLLPFGGTVEVEEHGNRPLKEEFAVIIAGPLQHIWLQFAAWMLAEVSVIHQHTFELFTFYNLSILFVNLLPIWPLDGGKLLFLLFSKQLPFQKAHRLNLKTSLCFCLLLGCWVLFVIPLQISAWVLFVFLAVSLFEEYRQRHYIHVRFLLERYYGKNRELEKLLPLTVKAEDKVYHVMAEFKRGCKHPIIIEKSGQKLSQLDENEVLHAYFADKRTNSSMEELLLPY
# partner: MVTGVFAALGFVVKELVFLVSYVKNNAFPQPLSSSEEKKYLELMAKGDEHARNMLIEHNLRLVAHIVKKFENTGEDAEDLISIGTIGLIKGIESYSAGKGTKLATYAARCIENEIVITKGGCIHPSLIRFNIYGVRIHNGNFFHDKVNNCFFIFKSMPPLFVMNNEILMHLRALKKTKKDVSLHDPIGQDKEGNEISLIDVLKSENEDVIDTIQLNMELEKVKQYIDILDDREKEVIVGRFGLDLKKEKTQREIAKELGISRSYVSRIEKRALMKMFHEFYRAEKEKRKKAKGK
# Variants of: B1
# Settings: with rpsk_bacsu sigK
row,Variant,effect of a mutation on the interaction
1,E44Q,disrupting interaction
